Assay results published in publication PMC5538626 (2017).

B1: PLEKHM1‐LIR WT peptide (EDEWVNVQY), biotinylated [modified: biotin; biotin] [not stated] / 6xHis‐tagged GABARAP‐L1 [human] (parent complex)
chain 1: EDEWVNVQY
chain 2: not shown
B2: PLEKHM1‐LIR WT peptide (EDEWVNVQY), biotinylated [modified: biotin; biotin] [not stated] / 6xHis‐tagged LC3C [human] (parent complex)
chain 1: EDEWVNVQY
chain 2: MPPPQKIPSVRPFKQRKSLAIRQEEVAGIRAKFPNKIPVVVERYPRETFLPPLDKTKFLVPQELTMTQFLSIIRSRMVLRATEAFYLLVNNKSLVSMSATMAEIYRDYKDEDGFVYMTYASQETFG
B3: PLEKHM1‐LIR WT peptide (EDEWVNVQY), biotinylated [modified: biotin; biotin] [not stated] / 6xHis‐tagged LC3B [human] (parent complex)
chain 1: EDEWVNVQY
chain 2: not shown

Variants of: B1
Assay: peptide array ELISA (biotinylated peptide on streptavidin plate, 6xHis-mATG8, anti-His-HRP, TMB); absorbance at 450 nm; n = 4; read off a plot

Variant | screen value [fold over mutLIR]
chain 1 V5A, chain 1 N6A | ~1.3
chain 1 N6A | ~9.9
chain 1 V5A | ~1.7
chain 1 V7A | ~2

Variants of: B1
Assay: peptide array (biotinylated LIR peptide, 6xHis-mATG8, absorbance); n = 3; read off a plot

Variant | percent of parent [% Mutant LIR/WT]
chain 1 V7I | ~95
chain 1 V7L | ~110
chain 1 W4A, chain 1 V7A | ~7
chain 1 W4F | ~60
chain 1 W4Y | ~55

Variants of: B2
Assay: peptide array ELISA (biotinylated peptide on streptavidin plate, 6xHis-mATG8, anti-His-HRP, TMB); absorbance at 450 nm; n = 4; read off a plot

Variant | screen value [fold over mutLIR]
chain 1 V5A | ~1.5
chain 1 V7A | ~1.4
chain 1 V5A, chain 1 N6A | ~1.2
chain 1 N6A | ~1.7

Variants of: B2
Assay: peptide array (biotinylated LIR peptide, 6xHis-mATG8, absorbance); n = 3; read off a plot

Variant | percent of parent [% Mutant LIR/WT]
chain 1 V7I | ~110
chain 1 V7L | ~85
chain 1 W4A, chain 1 V7A | ~5
chain 1 W4Y | ~25
chain 1 W4F | ~50

Variants of: B3
Assay: peptide array (biotinylated LIR peptide, 6xHis-mATG8, absorbance); n = 5; read off a plot

Variant | ratio to parent
chain 1 V5C, chain 1 N6I, chain 1 V7L | ~2.4
chain 1 W4A, chain 1 V7A | ~0.17
chain 1 V5C, chain 1 N6V, chain 1 V7L | ~2.3
chain 1 V5C, chain 1 N6F, chain 1 V7L | ~1.9

Variants of: B3
Assay: peptide array (biotinylated LIR peptide, 6xHis-mATG8, absorbance); n = 3; read off a plot

Variant | percent of parent [% Mutant LIR/WT]
chain 1 W4A, chain 1 V7A | ~8
chain 1 W4F | ~8
chain 1 W4Y | ~10
chain 1 V7I | ~200
chain 1 V7L | ~250
